Patent US20210292428A1 (US Dept. of Health and Human Services, published 2021)

Assays:
[1] = target: T1, human GPC2 expressed on the cell surface (human, UniProt Q8N158 24-554); assay: flow cytometry on GPC2-positive neuroblastoma cell lines LAN1 and IMR5, CT5 at 10 ng/ml, counts normalized to mode
T1 construct: whole, on cells; also called cell-surface GPC2; GPC2 on LAN1, IMR5, G10, F8, SKNBE2 and NBEB cells
T1 sequence (looked up): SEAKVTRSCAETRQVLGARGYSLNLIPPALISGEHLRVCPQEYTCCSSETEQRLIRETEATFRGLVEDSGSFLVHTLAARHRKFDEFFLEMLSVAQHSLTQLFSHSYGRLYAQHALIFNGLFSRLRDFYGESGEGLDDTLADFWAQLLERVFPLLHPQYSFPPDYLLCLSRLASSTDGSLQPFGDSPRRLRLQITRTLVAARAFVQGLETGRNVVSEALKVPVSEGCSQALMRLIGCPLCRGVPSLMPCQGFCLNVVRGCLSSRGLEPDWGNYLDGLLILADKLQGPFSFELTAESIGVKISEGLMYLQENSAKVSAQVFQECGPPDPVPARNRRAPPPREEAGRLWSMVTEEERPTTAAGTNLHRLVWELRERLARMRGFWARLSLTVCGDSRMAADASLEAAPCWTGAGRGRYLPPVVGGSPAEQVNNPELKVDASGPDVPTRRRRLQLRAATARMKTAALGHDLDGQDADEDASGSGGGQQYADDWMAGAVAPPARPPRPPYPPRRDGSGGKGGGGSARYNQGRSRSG

[2] = target: T2, recombinant human glypican-2 (GPC2) (human, UniProt Q8N158 24-554, limits assumed); assay: ELISA on recombinant glypican proteins, absorbance OD450nm
T2 construct: also called human GPC2; huGPC2
T2 sequence (looked up): T1 sequence (looked up)

[3] = target: T3, recombinant human glypican-5 (human, UniProt P78333 25-554, limits assumed); assay: as above
T3 construct: also called huGPC5
T3 sequence (looked up): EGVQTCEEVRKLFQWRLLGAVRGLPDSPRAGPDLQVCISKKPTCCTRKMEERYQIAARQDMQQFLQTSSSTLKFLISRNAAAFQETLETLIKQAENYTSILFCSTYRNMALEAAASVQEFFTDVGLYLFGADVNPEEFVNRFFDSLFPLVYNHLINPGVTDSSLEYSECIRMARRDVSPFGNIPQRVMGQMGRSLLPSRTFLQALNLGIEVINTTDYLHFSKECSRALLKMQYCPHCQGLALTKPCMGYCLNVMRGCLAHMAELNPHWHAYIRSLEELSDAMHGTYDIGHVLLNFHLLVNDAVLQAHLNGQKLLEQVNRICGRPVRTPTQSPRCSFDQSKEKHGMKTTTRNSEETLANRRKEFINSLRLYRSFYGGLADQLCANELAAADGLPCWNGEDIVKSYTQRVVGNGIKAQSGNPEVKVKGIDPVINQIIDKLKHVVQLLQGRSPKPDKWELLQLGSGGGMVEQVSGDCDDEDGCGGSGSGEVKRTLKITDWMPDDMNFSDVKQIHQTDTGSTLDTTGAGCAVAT

[4] = target: T4, recombinant human glypican-3 (human, UniProt P51654 25-559); assay: as above
T4 construct: also called human GPC3; huGPC3

[5] = target: T5, recombinant human glypican-6 (human, UniProt Q9Y625 24-529); assay: as above
T5 construct: also called human GPC6; huGPC6
T5 sequence (looked up): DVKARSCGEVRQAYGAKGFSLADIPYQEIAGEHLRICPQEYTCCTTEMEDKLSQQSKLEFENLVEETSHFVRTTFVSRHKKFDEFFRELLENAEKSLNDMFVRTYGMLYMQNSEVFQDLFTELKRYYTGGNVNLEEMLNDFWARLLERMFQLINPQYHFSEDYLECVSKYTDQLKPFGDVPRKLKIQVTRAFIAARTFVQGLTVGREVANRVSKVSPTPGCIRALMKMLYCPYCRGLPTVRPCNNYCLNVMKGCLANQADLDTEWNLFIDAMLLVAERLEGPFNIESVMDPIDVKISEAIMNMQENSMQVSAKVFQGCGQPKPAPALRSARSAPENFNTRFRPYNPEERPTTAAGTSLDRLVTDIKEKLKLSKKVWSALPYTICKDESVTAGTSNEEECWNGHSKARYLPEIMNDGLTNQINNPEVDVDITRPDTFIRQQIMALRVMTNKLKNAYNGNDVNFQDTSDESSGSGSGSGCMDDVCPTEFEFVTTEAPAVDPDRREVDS

[6] = target: T6, Human GPC2-His (human, UniProt Q8N158 24-554)
T6 sequence: T1 sequence (looked up)

[7] = target: T3, recombinant human glypican-5; assay: ELISA on recombinant human glypicans and mouse GPC2, absorbance OD450nm
[8] = target: T7, recombinant human glypican-4 (human, UniProt O75487 19-529, limits assumed); assay: as above
T7 construct: also called huGPC4
T7 sequence (looked up): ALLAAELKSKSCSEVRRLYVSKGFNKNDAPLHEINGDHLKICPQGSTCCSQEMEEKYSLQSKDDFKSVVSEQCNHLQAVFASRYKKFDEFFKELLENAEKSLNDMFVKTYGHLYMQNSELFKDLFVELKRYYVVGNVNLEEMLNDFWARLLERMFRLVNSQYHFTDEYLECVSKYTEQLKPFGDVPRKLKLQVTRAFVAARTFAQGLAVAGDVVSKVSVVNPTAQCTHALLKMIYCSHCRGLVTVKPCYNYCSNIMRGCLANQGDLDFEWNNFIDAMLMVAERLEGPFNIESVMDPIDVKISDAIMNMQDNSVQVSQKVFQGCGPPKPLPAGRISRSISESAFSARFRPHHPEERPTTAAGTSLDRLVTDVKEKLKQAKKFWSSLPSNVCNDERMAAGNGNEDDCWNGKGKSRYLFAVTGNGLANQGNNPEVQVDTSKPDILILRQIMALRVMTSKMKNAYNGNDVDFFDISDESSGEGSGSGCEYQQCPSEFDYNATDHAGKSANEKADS

[9] = target: T5, recombinant human glypican-6; assay: as above
[10] = target: T8, recombinant mouse GPC2 (mouse, UniProt Q8BKV1 22-556, limits assumed); assay: as above
T8 construct: also called msGPC2
T8 sequence (looked up): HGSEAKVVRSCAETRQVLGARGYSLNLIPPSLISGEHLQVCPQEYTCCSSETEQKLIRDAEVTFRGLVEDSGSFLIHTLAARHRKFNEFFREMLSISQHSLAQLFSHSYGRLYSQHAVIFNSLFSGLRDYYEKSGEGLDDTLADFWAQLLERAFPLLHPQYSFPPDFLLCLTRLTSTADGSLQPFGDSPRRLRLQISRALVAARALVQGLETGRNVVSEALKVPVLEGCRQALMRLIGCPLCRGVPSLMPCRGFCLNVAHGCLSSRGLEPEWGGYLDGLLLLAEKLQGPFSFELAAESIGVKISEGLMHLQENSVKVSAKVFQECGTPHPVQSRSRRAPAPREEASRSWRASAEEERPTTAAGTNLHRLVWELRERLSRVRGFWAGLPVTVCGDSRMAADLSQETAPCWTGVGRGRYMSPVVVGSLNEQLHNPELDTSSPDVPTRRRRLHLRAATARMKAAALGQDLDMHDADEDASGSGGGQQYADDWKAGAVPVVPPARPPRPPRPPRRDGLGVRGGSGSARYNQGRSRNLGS

[11] = target: T9, recombinant human glypican-1 (human, UniProt P35052 24-530); assay: as above
T9 construct: also called huGPC1
T9 sequence (looked up): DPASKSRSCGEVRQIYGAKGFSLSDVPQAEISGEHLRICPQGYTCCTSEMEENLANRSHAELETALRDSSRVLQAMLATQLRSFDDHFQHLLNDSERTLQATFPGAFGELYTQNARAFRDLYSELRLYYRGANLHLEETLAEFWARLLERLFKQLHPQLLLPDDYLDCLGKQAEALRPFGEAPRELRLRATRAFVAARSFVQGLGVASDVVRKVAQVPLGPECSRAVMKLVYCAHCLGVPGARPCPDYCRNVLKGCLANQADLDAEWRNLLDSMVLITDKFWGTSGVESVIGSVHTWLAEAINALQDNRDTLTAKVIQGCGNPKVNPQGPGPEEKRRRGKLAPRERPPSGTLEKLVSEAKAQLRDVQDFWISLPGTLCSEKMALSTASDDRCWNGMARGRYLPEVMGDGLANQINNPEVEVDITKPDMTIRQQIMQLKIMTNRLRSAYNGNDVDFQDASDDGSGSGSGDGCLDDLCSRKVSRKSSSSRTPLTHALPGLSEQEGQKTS

[12] = target: T2, recombinant human glypican-2 (GPC2); assay: Octet kinetic analysis (BLI), FIG. 1C

T4 sequence (P51654 25-559 limits assumed): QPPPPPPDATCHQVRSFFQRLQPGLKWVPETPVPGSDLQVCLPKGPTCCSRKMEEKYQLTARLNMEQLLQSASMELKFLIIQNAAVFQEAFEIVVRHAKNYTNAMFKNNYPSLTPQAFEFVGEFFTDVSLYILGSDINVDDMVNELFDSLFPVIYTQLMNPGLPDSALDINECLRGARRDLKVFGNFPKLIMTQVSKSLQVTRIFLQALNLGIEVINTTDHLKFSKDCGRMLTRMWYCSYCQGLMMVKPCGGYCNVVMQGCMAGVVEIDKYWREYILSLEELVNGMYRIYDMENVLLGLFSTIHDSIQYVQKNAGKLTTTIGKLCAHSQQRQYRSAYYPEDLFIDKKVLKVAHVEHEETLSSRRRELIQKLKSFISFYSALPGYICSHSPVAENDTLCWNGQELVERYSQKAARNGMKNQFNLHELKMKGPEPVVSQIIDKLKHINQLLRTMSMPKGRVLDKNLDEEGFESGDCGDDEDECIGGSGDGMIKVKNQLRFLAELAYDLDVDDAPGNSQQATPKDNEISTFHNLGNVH

B1: CT5 antibody (antibody, IgG1, V domains shown)
VH: EVKLVESGGGLVQSGRSLRLSCATSGFTFSDFYMEWVRQAPGKGLEWIVASRDKANDYTTAYSASVKGRFIVSRDTSQSILYLQMNALRAEDTAIYYCVRDFYDYDEAYWGQGTLVTVS
VL: DIQMTQSPSSLSASLGGTVTITCKASEDINNYIAWYQHKPGKGPRLLIQYTSTLQPGIPSRFSGSGSGRDYSLSISNLEPEDIATYYCLQYDILWTFGGGTKLEIK
[1]
  binding result: binds
[2]
  binding result: binds
[3]
  binding result: no binding
[4]
  binding result: no binding
[5]
  binding result: no binding

B2: CT3-T20 immunotoxin (other)
chain: EVQLQQSGPELVKPGASVKMSCKASRFTFTDYNIHWVKQSPGKTLEWIGYINPNNGDIFYKQKFNGKATLTINKSSNTAYMELRSLTSEDSAVYYCVRSSNIRYTFDRFFDVWGTGTTVTVSSGGGGSGGGGSGGGGSENVLTQSPAIMSASLGEKVTMSCRASSSVNYIYWYQQKSDASPKLWIYYTSNLAPGVPARFSGSGSGNSYSLTISSMEGEDAATYYCQQFSSSPSTFGTGTKLELKKLKASGGRHRQPRGWEQLGGGGGSPTGAEFLGDGGDVSFSTRGTQNWTVERLLQAHAQLEERGYVFVGYHGTALEAAQSIVFGGVRARSQDLDAIWRGFYIAGDPAHAYGYAQDQEPDARGRIANGALLRVYVPASSLPGFYRTSLTLAAPEAAGEVERLIGHPLPLRLDAITGPEEEGGREETILGWPLAERTVVIPSAIPTDPRNVGGDLDPSSIPDKEQAISALPDYASQPGKPPREDLK
[6]
  Kd: 0.16 nM

B3: CT3-PE38 immunotoxin (other)
chain: EVQLQQSGPELVKPGASVKMSCKASRFTFTDYNIHWVKQSPGKTLEWIGYINPNNGDIFYKQKFNGKATLTINKSSNTAYMELRSLTSEDSAVYYCVRSSNIRYTFDRFFDVWGTGTTVTVSSGGGGSGGGGSGGGGSENVLTQSPAIMSASLGEKVTMSCRASSSVNYIYWYQQKSDASPKLWIYYTSNLAPGVPARFSGSGSGNSYSLTISSMEGEDAATYYCQQFSSSPSTFGTGTKLELKSAAKASGGPEGGSLAALTAHQACHLPLETFTRHRQPRGWEQLEQCGYPVQRLVALYLAARLSWNQVDQVIRNALASPGSGGDLGEAIREQPEQARLALTLAAAESERFVRQGTGNDEAGAANGPADSGDALLERNYPTGAEFLGDGGDVSFSTRGTQNWTVERLLQAHRQLEERGYVFVGYHGTFLEAAQSIVFGGVRARSQDLDAIWRGFYIAGDPALAYGYAQDQEPDARGRIRNGALLRVYVPRSSLPGFYRTSLTLAAPEAAGEVERLIGHPLPLRLDAITGPEEEGGRLETILGWPLAERTVVIPSAIPTDPRNVGGDLDPSSIPDKEQAISALPDYASQPGKPPREDLK
[6]
  Kd: 0.22 nM

B4: CT3 antibody (antibody, IgG1, V domains shown)
VH: EVQLQQSGPELVKPGASVKMSCKASRFTFTDYNIHWVKQSPGKTLEWIGYINPNNGDIFYKQKFNGKATLTINKSSNTAYMELRSLTSEDSAVYYCVRSSNIRYTFDRFFDVWGTGTTVTVSS
VL: ENVLTQSPAIMSASLGEKVTMSCRASSSVNYIYWYQQKSDASPKLWIYYTSNLAPGVPARFSGSGSGNSYSLTISSMEGEDAATYYCQQFSSSPSTFGTGTKLELK
notes: also called anti-GPC2 antibody CT3
[7]
  binding result: no binding
[8]
  binding result: no binding
[9]
  binding result: no binding
[10]
  binding result: no binding
[11]
  binding result: no binding
[12]
  Kd: 0.5 nM
[4]
  binding result: no binding
